Source: the MegaScale stability set (Tsuboyama et al. 2023)

B1: 5KPH (parent)
chain: EEKRQVKQVAKEKLLEQSPNSKVQVRRVQKQGNTIRVELELRTNGKKENYTVEVERQGNTWTVKRITRT

Variants of: B1
Test: folding stability dG (cDNA display proteolysis); higher = more stable
Details: PBS, room temperature

Folding stability dG [kcal/mol], by site and new letter:
K13: S 3.66 | G 3.55 | W 3.48 | N 2.71 | F 3.99 | P 2.43 | L 3.42 | I 4.04 | D 1.86 | Q 3.24 | T 3.78 | Y 4.07 | R 3.61 | M 3.7 | V 4.12 | E 2.79 | C 3.62 | A 4.53 | H 3.57
Q8: A 3.76 | R 3.92 | K 4.16 | C 3.49 | M 3.59 | G 3.2 | N 3.57 | D 3.67 | S 3.55 | F 3.03 | I 3.76 | Y 2.78 | T 3.51 | E 3.74 | V 3.31 | L 3.51 | P 2.29 | H 3.62 | W 2.56
S18: N 4.47 | P 1.99 | C 3.86 | E 3.57 | G 2.56 | Q 3.82 | D 3.23 | R 3.82 | M 4.05 | L 4.03 | V 3.94 | H 4.66 | W 4.39 | K 3.83 | Y 4.74 | A 3.8 | F 4.68 | T 3.35 | I 3.93
E12: P 1.8 | F 2.78 | L 3.47 | G 3.34 | V 3.21 | Y 2.83 | C 3.52 | T 3.6 | D 4.17 | H 3.53 | I 3.56 | A 4.15 | N 3.73 | M 3.67 | R 3.89 | Q 4.02 | K 3.83 | W 2.92 | S 3.79
K3: Y 4.74 | R 4.07 | C 4.21 | S 4.17 | A 4.28 | Q 4.19 | H 4.2 | N 4.25 | D 4.41 | P 3.01 | F 4.65 | T 4.31 | W 4.88 | E 4.84 | G 3.73 | M 4.84 | V 4.72
K11: W 3.24 | H 2.85 | Y 3.32 | V 4.49 | R 3.94 | C 3.75 | A 3.8 | Q 3.45 | P 2.01 | L 3.99 | F 3.33 | T 3.86 | G 2.74 | M 4.37 | D 1.94 | I 4.55 | N 2.38 | E 3.44 | S 3.8
A10: C 3.26 | F 2.24 | D 1.8 | M 2.73 | H 1.69 | Q 1.91 | S 2.92 | G 2.6 | R 2.02 | E 1.78 | I 4.24 | V 3.78 | Y 1.96 | W 2.27 | T 2.76 | K 1.92 | P 1.77 | L 3.55 | N 1.88
R4: V 3.34 | D 3.98 | N 3.72 | E 4.22 | L 3.54 | Q 3.81 | I 3.04 | H 3.79 | S 3.72 | P 2.55 | M 3.84 | F 3.64 | C 3.57 | Y 3.64 | W 3.79 | G 3.38 | K 3.9 | A 3.86 | T 3.69
E16: M 3.38 | C 3.27 | T 3.34 | P 2.15 | F 2.82 | A 3.8 | Y 2.61 | G 3.25 | Q 3.77 | H 3.17 | R 3.08 | N 3.21 | I 3.04 | S 3.55 | L 3.47 | W 2.86 | V 2.86 | D 3.16 | K 3.24
K7: L 4.49 | E 4.5 | D 3.14 | P 2.66 | R 3.85 | F 4.07 | Y 3.86 | S 4.63 | C 4.11 | N 3.39 | G 4.38 | T 4.58 | Q 4.19 | I 4.82 | H 3.57 | M 4.8 | V 4.86
E2: R 3.19 | V 3.73 | N 3.28 | K 2.91 | Y 3.08 | M 3.58 | P 2.94 | T 3.74 | L 3.66 | S 3.47 | W 4.05 | Q 3.9
P19: T 2.69 | W 2.15 | E 2.5 | A 2.83 | C 3.04 | D 2.31 | I 2.83 | S 2.77 | N 2.57 | M 2.71 | K 3.03 | H 2.92 | F 2.54 | L 2.64 | V 2.82 | Q 2.85 | R 2.76 | Y 2.13 | G 2.7
V6: Y 3.13 | C 3.31 | Q 2.78 | D 1.95 | A 4.84 | S 3.37 | L 3.46 | G 3.48 | K 2.05 | I 4.24 | H 2.57 | T 2.66 | M 3.03 | R 1.97 | E 2.28 | P 3.55 | N 1.92 | W 3.61 | F 2.99
Q17: L 4.54 | M 4.52 | P 1.82 | C 3.75 | G 3.64 | T 3.83 | W 3.6 | H 4.04 | S 3.59 | D 3.46 | E 3.31 | K 3.77 | F 4.12 | I 4.39 | R 3.92 | V 3.91 | A 3.68 | N 3.69 | Y 4
L14: I 3.75 | C 3.29 | E 1.7 | W 2.29 | V 3.65 | Q 1.9 | S 2.17 | R 2.08 | H 1.79 | F 2.92 | P 1.78 | N 1.92 | A 3.13 | D 1.74 | Y 1.95 | K 2.18 | G 2.07 | T 2.26 | M 4.02
N20: A 3.77 | D 3.66 | C 3.53
Q5: D 3.73 | V 3.73 | C 3.54 | R 4.19 | H 3.77 | W 3.62 | G 3.64 | L 3.9 | I 3.95 | S 3.84 | T 3.93 | P 2.86 | N 3.54 | K 3.86 | F 3.83 | E 3.88 | M 4.07 | A 3.93 | Y 3.64
L15: F 3.03 | M 3.7 | V 3.01 | W 2.92 | G 2.53 | D 2.07 | C 3.13 | P 1.87 | Y 3.14 | T 2.92 | N 2.5 | E 3.1 | I 3.02 | S 2.83 | A 2.99 | Q 3.42 | H 2.98 | R 3.33 | K 3.36
V9: C 3.28 | L 4.16 | P 1.9 | K 3.39 | G 1.81 | F 3.82 | N 2.18 | D 1.82 | H 2.88 | W 2.74 | Y 3.38 | I 4.22 | Q 3.26 | T 3.15 | A 3.39 | M 3.83 | E 2.33 | S 2.4 | R 3.07
